Assay [1] deals with T1, monomeric human TNFR2 extracellular domain (human, UniProt P20333 23-257).
T1 construct: extracellular domain; Analyte in the Octet experiments; also called human TNFR2 ECD
T1 sequence (looked up): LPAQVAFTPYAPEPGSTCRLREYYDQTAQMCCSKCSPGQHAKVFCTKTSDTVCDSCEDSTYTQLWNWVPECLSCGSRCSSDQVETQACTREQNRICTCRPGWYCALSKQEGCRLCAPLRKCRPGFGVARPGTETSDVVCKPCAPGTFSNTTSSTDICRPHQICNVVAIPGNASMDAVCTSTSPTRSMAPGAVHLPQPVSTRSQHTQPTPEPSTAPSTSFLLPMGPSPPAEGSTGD
In words: BLI (Octet Red 96), CHO supernatant antibody on anti-human Fc biosensor, 100 nM monomeric human TNFR2 ECD, 1:1 model. Here is the method:
Analysis of binding to human TNFR2 ECD was performed using Octet Red 96 instrument (ForteBio). The Octet systems use propriety BLI to analyze biomolecular interaction. CHO supernatants of hSBT-002a, hSBT-002b, hSBT-002c, hSBT-002d, hSBT-002e, and chSBT-002n were diluted to 20 ug/ml based on titers with expression media and immobilized using anti-human Fc biosensors. These were incubated with 100 nM monomeric human TNFR2 in PBS. The experiments comprised of 5 steps: (1) baseline acquisition (60 s); (2) antibodies loading onto anti-human Fc biosensor (120 s); (3) second baseline acquisition (60 s); (4) association of interacting monomeric human TNFR2 ECD protein for kₒₙ measurement (120 s); (5) Dissociation of interacting monomeric human TNFR2 ECD for koff measurement (300 s). Data were analyzed using Octet Data Analysis Software 9.0 (ForteBio) and fitted to the 1:1 binding model. Equilibrium dissociation constants (Kd) were calculated by the ratio of […].
On the technique in general: Biolayer interferometry detects binding as a change in optical thickness at a sensor tip.

Assay [2] has as its target T1, monomeric human TNFR2 extracellular …. In words: BLI (Octet Red 96), antibody captured on Fc biosensor, monomeric TNFR2 ECD in solution, 1:1 model. As for the experimental part:
(§1) Analysis of binding to the human and cynomolgus TNFR2 ECD was performed using an Octet Red 96 Instrument™ (ForteBio). […] The experiments were performed using five steps: (1) baseline acquisition (60 s); (2) antibody loading on to anti-human or anti-mouse Fc biosensors (120 s); (3) second baseline acquisition (60 s); (4) association of interacting monomeric human or cynomolgus TNFR2 ECD protein for kₒₙ measurement (120 s); and (5) dissociation of interacting monomeric human or cynomolgus TNFR2 ECD for koff measurement (240-3600 s).
(§2) The interacting monomeric human or cynomolgus ECD was used at 5-6 concentrations of a 3-fold concentration series. The data were analyzed using Octet Data Analysis Software 9.0™ (ForteBio) and fit to the 1:1 binding model. The equilibrium dissociation constants (Kd) were calculated by the ratio of […].

Assay [3] deals with T2, monomeric cynomolgus TNFR2 extracellular domain (cynomolgus monkey, UniProt A0A2K5VET2 132-366).
T2 construct: extracellular domain; Analyte in the Octet experiments; also called cynomolgus TNFR2 ECD; Cyno TNFR2
T2 sequence: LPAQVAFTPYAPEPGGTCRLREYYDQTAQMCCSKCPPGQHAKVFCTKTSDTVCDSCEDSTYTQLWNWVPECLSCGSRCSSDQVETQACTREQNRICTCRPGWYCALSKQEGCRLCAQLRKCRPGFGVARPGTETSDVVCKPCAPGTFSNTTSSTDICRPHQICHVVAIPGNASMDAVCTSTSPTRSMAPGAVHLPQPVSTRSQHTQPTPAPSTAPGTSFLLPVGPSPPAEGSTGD
Described as above. Here is the method:
as §1, §2

The target of assay [4] is T1, monomeric human TNFR2 extracellular …. In words: BLI (Octet Red 96), Human TNFR2 Kd (1-1).

Our source for the Kd and koff values is patent US20190202925A1 (OPI VI IP HOLDCO, published 2019).

B1: hSBT-002b (antibody, V domains shown)
VH: QVTLKESGPALVKPTQTLTLTCTFSGFSLSTSGMGVGWIRQPPGKALEWLAHIWWDDDKFYNPSLKSQLTISKDTSKNQVVLTMTNMDPVDTATYYCARITGTRYFDYWGQGTTVTVSS
VL: DVQMTQSPSSLSASVGDRVTITCKASQDINKFIAWYQQKPGKAPKLLIHYTSTLQPGIPSRFSGSGSGTDFTFTISSLQPEDIATYYCLQYGNLWTFGGGTKVEIK
notes: Humanized SBT-002; VH fused to human IgG1 Fc null, VL to human Ck; Tested as CHO supernatant
Take B1: in assay [1], the Kd (in general, the constant that tells how readily two partners part at equilibrium) stood at 2.44 nM and the koff (commonly a measure of how fast the partners let go of each other) stood at 0.000424 s⁻¹.

B2: hSBT-002a (antibody, V domains shown)
VH: QVTLKESGPALVKPTQTLTLTCTFSGFSLSTSGMGVGWIRQPPGKALEWLAHIWWDDDKFYNPSLKSRLTISKDTSKNQVVLTMTNMDPVDTATYYCARITGTRYFDYWGQGTTVTVSS
VL: DIQMTQSPSSLSASVGDRVTITCKASQDINKFIAWYQQKPGKAPKLLIYYTSTLQPGVPSRFSGSGSGTDFTFTISSLQPEDIATYYCLQYGNLWTFGGGTKVEIK
notes: as for B1
Consider B2, for which, in assay [1], binding was characterised by a dissociation constant (Kd) of 4.89 nM and the koff worked out at 0.000722 s⁻¹.

B3: hSBT-002c (antibody, V domains shown)
VH: QVTLKESGPALVKPTQTLTLTCTFSGFSLSTSGMGVGWIRQPPGKALEWLAHIWWDDDKFYNPSLKSRLTISKDTSKNQVVLTMTNMDPVDTATYYCARLTGTRYFDYWGQGTTVTVSS
VL: DVQMTQSPSSLSASVGDRVTITCKASQDINKFIAWYQQKPGKAPKLLIHYTSTLQPGIPSRFSGSGSGTDFTFTISSLQPEDIATYYCLQYGNLWTFGGGTKVEIK
notes: as for B1
In assay [1], B3 registered a Kd of 2.27 nM and a koff of 0.000446 s⁻¹.

B4: hSBT-002e (antibody, V domains shown)
VH: QVTLKESGPALVKPTQTLTLTCTFSGFSLSTSGMGVGWIRQPPGKALEWLAHIWWDDDKFYNPSLKSRLTISKDTSKNQVVLTMTNMDPVDTATYYCARLTGTRYFDYWGQGTTVTVSS
VL: DVQMTQSPSSLSASVGDRVTITCKASQDINKFIAWYQQKPGKAPKLLIHYTSTLQPGIPSRFSGSGSGRDYTFTISSLQPEDIATYYCLQYGNLWTFGGGTKVEIK
notes: as for B1
In assay [1], B4 showed a dissociation constant Kd of 1.54 nM and a koff of 0.000268 s⁻¹.

B5: hSBT-002d (antibody, V domains shown)
VH: QVTLKESGPALVKPTQTLTLTCTFSGFSLSTSGMGVGWIRQPPGKALEWLAHIWWDDDKFYNPSLKSQLTISKDTSKNQVVLTMTNMDPVDTATYYCARITGTRYFDYWGQGTTVTVSS
VL: DVQMTQSPSSLSASVGDRVTITCKASQDINKFIAWYQQKPGKAPKLLIHYTSTLQPGIPSRFSGSGSGRDYTFTISSLQPEDIATYYCLQYGNLWTFGGGTKVEIK
notes: as for B1
In assay [1], B5 yielded a Kd of 1.73 nM and a koff of 0.000301 s⁻¹.

B6: chimeric SBT-001 (antibody, V domains shown)
VH: EVQLQQSGAELVKPGASVKISCKASGYTFTDYNMDWVKQSHGKSLEWIGDINPNYESTSYNQKFKGKATLTVDKSSSTAYMEVRSLTSEDTAVFYCARDKGWYFDVWGAGTTVTVSS
VL: ENVLTQSPAIMSASLGEKVTMSCRASSSVKNMYWYQQKSDASPKLWIYYTSNLAPGVPARFSGSGSGNSYSLTISSMEGEDAATYYCQQFTSSPYTFGGGTKLELK
notes: also called chSBT-001
Take B6: the Kd came to 1.8 nM in assay [2] and 58.3 nM in assay [3].

B7: chimeric SBT-002 Fc null (antibody, V domains shown)
VH: QVTLKESGPGILQPSQTLSLTCSFSGFSLSTSGMGVGWIRQPSGKGLEWLAHIWWDDDKFYNPSLKSQLTISKDTSRNQVFLKLTSVVTADTATYYCARLTGTRYFDYWGQGTTLTVSS
VL: DVQMTQSPSSLSASLGGKVTITCKASQDINKFIAWYQHKPGKGPRLLIHYTSTLQPGIPSKFSGSGSGRDYSFSISNLEPEDIATYYCLQYGNLWTFGGGTKLEIT
notes: also called chSBT-002n
B7: the Kd in assay [1] worked out at 1.92 nM; in assay [4], 2.5 nM. In addition, in assay [1], the koff turned out to be 0.000361 s⁻¹.

B8: chimeric SBT-003 Fc null (antibody, V domains shown)
VH: QIQLVQSGPELKKPGETVKISCKASGYTFTDYSMHWVKQAPGKGLKWMGWINTETGEPTYADDFKGRFAFSSETSTSTAYLQINNLKNDDTTTYFCATYYGSSYVPDYWGQGTSLTVSS
VL: DIVMTQSHKFMSTSVGDRVSITCKASQNVGTAVAWYQHKPGQSPKLLIYWTSSRHTGVPDRFTGSGSGTEFTLTISNVQSEDLADYFCHQYSDYPYTFGGGTKLEIK
notes: also called chSBT-003n
As for B8, in assay [4], the Kd was determined as 1 nM.
